T1: human LAG3 ECD recombinant protein (plate coated, tag not stated) (human, UniProt P18627 23-450)
T1 construct: extracellular domain
T1 sequence (looked up): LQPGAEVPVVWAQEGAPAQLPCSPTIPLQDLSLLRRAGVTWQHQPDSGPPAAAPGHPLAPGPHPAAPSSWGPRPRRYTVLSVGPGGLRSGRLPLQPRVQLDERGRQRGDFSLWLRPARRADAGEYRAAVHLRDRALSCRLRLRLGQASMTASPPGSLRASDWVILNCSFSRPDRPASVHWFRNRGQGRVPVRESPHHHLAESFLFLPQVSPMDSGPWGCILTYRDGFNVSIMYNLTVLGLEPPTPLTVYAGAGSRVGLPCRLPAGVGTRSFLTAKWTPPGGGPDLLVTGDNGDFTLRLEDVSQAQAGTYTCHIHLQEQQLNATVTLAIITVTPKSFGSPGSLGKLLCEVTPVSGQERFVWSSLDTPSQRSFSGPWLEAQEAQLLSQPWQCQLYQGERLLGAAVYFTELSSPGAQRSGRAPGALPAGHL

T2: LAG3 D1 domain extra loop peptide (biotin labelled (site not stated))
T2 peptide: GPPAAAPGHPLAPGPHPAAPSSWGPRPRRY

T3: human LAG3, full length, stably expressed on cells (human, UniProt P18627 23-525)
T3 construct: whole, on cells; also called CHOK1-human LAG3
T3 sequence (looked up): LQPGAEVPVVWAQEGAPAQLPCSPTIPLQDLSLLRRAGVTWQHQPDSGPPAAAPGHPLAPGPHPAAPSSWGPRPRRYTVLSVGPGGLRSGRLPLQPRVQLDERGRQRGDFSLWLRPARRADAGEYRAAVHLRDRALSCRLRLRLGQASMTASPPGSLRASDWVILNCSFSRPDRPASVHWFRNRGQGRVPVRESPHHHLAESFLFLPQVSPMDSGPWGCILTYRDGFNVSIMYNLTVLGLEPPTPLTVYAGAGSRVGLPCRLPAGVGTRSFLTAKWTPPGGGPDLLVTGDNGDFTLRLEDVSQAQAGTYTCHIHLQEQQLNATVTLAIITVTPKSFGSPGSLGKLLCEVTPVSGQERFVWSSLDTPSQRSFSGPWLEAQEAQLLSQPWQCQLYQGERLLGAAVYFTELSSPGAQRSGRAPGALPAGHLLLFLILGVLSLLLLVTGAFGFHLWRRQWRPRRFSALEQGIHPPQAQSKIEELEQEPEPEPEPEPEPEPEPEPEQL

T4: mFc tagged human LAG3 ECD recombinant protein (human, UniProt P18627 23-450)
T4 construct: extracellular domain; purchased from Biointron; not shown: mouse IgG Fc (mFc) tag
T4 sequence (looked up): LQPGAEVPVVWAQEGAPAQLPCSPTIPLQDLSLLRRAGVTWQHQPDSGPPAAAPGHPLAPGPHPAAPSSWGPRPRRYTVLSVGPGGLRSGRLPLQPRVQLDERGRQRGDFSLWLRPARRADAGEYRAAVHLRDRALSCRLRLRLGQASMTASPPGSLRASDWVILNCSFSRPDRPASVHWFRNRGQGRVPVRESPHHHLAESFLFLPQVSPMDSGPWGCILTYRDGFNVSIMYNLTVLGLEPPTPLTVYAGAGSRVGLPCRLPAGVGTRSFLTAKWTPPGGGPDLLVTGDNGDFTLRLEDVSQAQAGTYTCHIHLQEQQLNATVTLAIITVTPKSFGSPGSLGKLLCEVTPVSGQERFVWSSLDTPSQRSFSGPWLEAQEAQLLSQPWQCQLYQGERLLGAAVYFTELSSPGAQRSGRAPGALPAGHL

T5: human LAG3 (form used in Octet, Biacore and HDX-MS not given) (human, UniProt P18627 23-450, limits assumed)
T5 sequence (looked up): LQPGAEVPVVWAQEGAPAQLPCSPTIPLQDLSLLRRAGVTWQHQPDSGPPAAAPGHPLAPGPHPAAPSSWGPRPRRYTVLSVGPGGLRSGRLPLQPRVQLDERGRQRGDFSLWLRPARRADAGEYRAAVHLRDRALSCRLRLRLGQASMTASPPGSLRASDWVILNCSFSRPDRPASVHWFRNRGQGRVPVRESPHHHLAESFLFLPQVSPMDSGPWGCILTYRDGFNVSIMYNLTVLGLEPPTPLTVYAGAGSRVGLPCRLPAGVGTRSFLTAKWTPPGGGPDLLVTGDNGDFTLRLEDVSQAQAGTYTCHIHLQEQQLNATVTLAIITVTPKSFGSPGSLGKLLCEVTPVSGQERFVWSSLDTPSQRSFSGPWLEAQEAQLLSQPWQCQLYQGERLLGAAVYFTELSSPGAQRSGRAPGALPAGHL


Legend:
[1] = target: T1, human LAG3 ECD recombinant protein …; experiment: competitive ELISA format I: His-FGL1 binding to coated LAG3 ECD
Experimental: After washing, HRP labeled anti-His 2nd antibody (Sigma) was added and incubated at 37° C. for 1 hour. Then, 100 μl/well of TMB solution (Biotechnology) was added. After incubation for 15 minutes at room temperature, the reaction was stopped by the addition of 50 μl of 1N HCl. OD 450 nm was read. […] After washing, HRP labeled anti-SA 2nd antibody (Sigma) was added and incubated at 37° C. for 1 hour. Then, 100 μl/well of TMB solution (Biotechnology) was added. After incubation for 15 minutes at room temperature, the reaction was stopped by the addition of 50 μl of 1N HCl. OD 450 nm was read. […] The competition assay of format III is a competitive FACS assay. […] After washing, dye labeled anti-His 2nd antibody (Sigma) was added and incubated at 37° C. for 1 hour. Fluorescence intensity was detected.

[2] = target: T2, LAG3 D1 domain extra loop peptide; experiment: ELISA format I: biotin labelled LAG3 D1 domain extra loop peptide on plate coated antibody; axis printed as Ab Conc. (nM)
Experimental: In ELISA binding assay of format I (FIG. 9A), biotin labelled LAG3 D1 domain extra loop peptide was incubated with ELISA microplate coated anti-LAG3 antibodies. After washing, HRP labeled anti-SA 2nd antibody (Sigma) was added and incubated at 37° C. for 1 hour. Then, 100 μl/well of TMB solution (Biotechnology) was added. After incubation for 15 minutes at room temperature, the reaction was stopped by the addition of 50 μl of 1N HCl. OD 450 nm was read. In ELISA binding assay of format II (FIG. 9B), biotin labelled LAG3 D1 domain extra loop peptide and anti-LAG3 antibodies were co-incubated in ELISA microplate coated with SA. After washing, HRP labeled anti-human Fc 2nd antibody (Sigma) was added and incubated at 37° C. for 1 hour. Then, 100 μl/well of TMB solution (Biotechnology) was added. After incubation for 15 minutes at room temperature, the reaction was stopped by the addition of 50 μl of 1N HCl. OD 450 nm was read.

[3] = target: T3, human LAG3, full length, stably …; experiment: FACS on 293F cells stably expressing human LAG3
Experimental: Briefly the antibodies were incubated with 2×10⁵ target cells at 4° C. for 1 hour. After washing, fluorescence labeled anti-mouse IgG 2nd antibody (Life Technologies) was added and incubated at 4° C. for 1 hour. Geometric median fluorescence intensity (MFI) was detected and EC₅₀ was calculated using GraphPad Prism9.0.
(§1) MFI was detected and EC₅₀ was calculated using GraphPad Prism9.0.

[4] = target: T3, human LAG3, full length, stably …; experiment: FACS on CHOK1 cells stably expressing human LAG3
Experimental: as §1

[5] = target: T4, mFc tagged human LAG3 ECD recombinant …; experiment: competitive FACS: mFc tagged human LAG3 ECD binding to MHC II on Raji cells
Experimental: Activity of the purified chimeric antibodies to block LAG3 and MHC II interaction was determined by competitive FACS assay. […] After washing, dye labeled anti-mouse Fc 2nd antibody (Sigma) was added and incubated at 37° C. for 1 hour. Fluorescence intensity was detected.

[6] = target: T5, human LAG3 (form used in Octet, Biacore …); experiment: BLI (Octet), 1:1 fit
Experimental: (§2) The association and dissociation curves were fit with 1:1 binding model, and the Ka/Kd/KD values for each antibody were calculated.
as §2

Blocking ratio at 66.7 nM (%) [1] | binding result [2] | EC50 [3] | TOP MFI [3] | EC50 [4] | TOP MFI [4] | %Blocking at 2 nM [5] | %Blocking at 4 nM [5] | %Blocking at 8 nM [5] | Kd [6] | koff [6] | kon [6] | Binder
39.3% | no binding (tested: about 300 nM) | 1.7 nM | 267 | – | – | – | – | – | – | – | – | BAP-050 (antibody, V domains shown, also called BAP-50) VH: QIQLVQSGPELKKPGETVKISCKASGFTLTNYGMNWVRQTPGKGLKWMGWINTDTGEPTYADDFKGRFAFSLETSASTASLQINNLKNADTATYFCARNPPYYYGTNNAEAMDYWGQGTAVTVSS VL: DIQMTQTTSSLSASLGDRVTISCSSSQDISNYLNWYQQKPDGTVKVLIYYTSTLHLGVPSRFSGSGSGTDYSLTISNLELEDIATYYCQQYYNLPWTFGGGTKLEIK
– | – | – | – | 2.3 nM | 598 | 9.9% | 30.4% | 70.2% | 6.95 nM | 0.00314 s⁻¹ | 451000 M⁻¹ s⁻¹ | hu021.269 (antibody, V domains shown, humanized from 021c) VH: QVQLQESGPGLVKPSQTLSLTCTVSGYSITSGYYWNWIRQHPGNKLEWIGDISYDGGNNYNPSLKNRVTISRDTSKNQFSLKLSSVTAADTAVYYCARDITLTGAMDYWGQGTTVTVSS VL: EIVLTQSPATLSLSPGERATLSCRASESVDNYGISFMHWYQQKPGQAPRLLIYRASNRESGIPARFSGSGSRTDFTLTISSLEPEDFAVYYCQQSNKDPYTFGQGTKLEIK
– | – | – | – | 1.8 nM | 586 | 4.6% | 23.9% | 71.5% | – | – | – | hu021.212 (antibody, V domains shown, humanized from 021c) VH: QVQLQESGPGLVKPSQTLSLTCTVSGYSISSGYYWNWIRQHPGNKLEWIGDISYEGGNNYNPSLKNRVTISRDTSKNQFSLKLSSVTAADTAVYYCARDITLTGAMDYWGQGTTVTVSS VL: EIVLTQSPATLSLSPGERATLSCRASESVDNYGISFMHWYQQKPGQAPRLLIYRASNLETGIPARFSGSGSRTDFTLTISSLEPEDFAVYYCQQSNKDPYTFGQGTKLEIK

Source: patent US20250313625A1 (ELPISCIENCE SUZHOU BIOPHARMA, published 2025)
